Source: publication PMC3080406, “Efficient Conversion of Phenylpyruvic Acid to Phenyllactic Acid by Using Whole Cells of Bacillus coagulans SDM” (PLoS ONE, 2011)

B1: D-nLDH (Heyndrickxia coagulans) (protein)
chain: MRKVVAYETRADEFPLFQKFARKFDLDIKYIDDVLTPETAMEAKGAEAVTILGNYPVGSGTFKALRDVGVKYIGLRTAGNNHIDQEAAKAYGIRFSNVAYSPYCVADFATMLILMCVRKAKQILSRVEAQDFSVEGIQGREMRNLTIGIIGAGRIGSIVAKNLSGFGCNLIAHDTVERDELRGILKYVSLDELLEESDVITIHTPLFESTYHMINQERIAKIKDGVCIINCSRGAEVDTYALIAGIEAGKAGAAGIDVLEDEEGIFHYDRRTDILDHRQLAILRSFPNVIVTPHTAFYPNQAVSDMAEMALTSLVSFVETGKSRWEIKS
notes: full-length ldhD in pET-28a, N- and C-terminal His tags kept, expressed in E. coli BL21(DE3), HisTrap purified
B2: L-nLDH (Heyndrickxia coagulans) (protein)
chain: MKKVNRIAVVGTGAVGTSYCYAMINQGVAEELVLIDINEAKAEGEAMDLNHGLPFAPTPTRVWKGDYSDCGTADLVVITAGSPQKPGETRLDLVSKNAKIFKGMIKSIMDSGFNGIFLVASNPVDILTYVTWKESGLPKEHVIGSGTVLDSARLRNSLSAQFGIDPRNVHAAIIGEHGDTELPVWSHTNIGYDTIESYLQKGIIDEKTLDDIFVNTRDAAYHIIERKGATFYGIGMSLTRITRAILNNENSVLTVSAFLEGQYGNSDVYVGVPAIINRQGIREVVEIKLNEKEQEQFNHSVKVLKETMAPVL
notes: full-length ldhL in pET-28a, N- and C-terminal His tags kept, expressed in E. coli BL21(DE3), HisTrap purified

What was measured:
Test in all cases: NADH oxidation assay
Assay type in all cases: biochemical, Heyndrickxia coagulans
[1] = substrate: O=C(O)C(=O)Cc1ccccc1; conditions: 0.2 mM NADH, 50 mM Tris-HCl pH 7.0, 50°C, no FDP
Source text: (§1) NADH oxidation assay on D-nLDH

[2] = substrate: CC(=O)C(=O)O; conditions: 0.2 mM NADH, 50 mM Tris-HCl pH 7.0, 50°C, no FDP
Source text: as §1

[3] = substrate: O=C(O)C(=O)Cc1ccccc1; conditions: 0.2 mM NADH, 5 mM FDP (fructose 1,6-bisphosphate), 50 mM Tris-HCl pH 7.0, 50°C
Source text: (§2) NADH oxidation assay on L-nLDH

[4] = substrate: CC(=O)C(=O)O; conditions: 0.2 mM NADH, 5 mM FDP (fructose 1,6-bisphosphate), 50 mM Tris-HCl pH 7.0, 50°C
Source text: as §2

Row | Protein | Km [1] [mM] | Vmax [1] [µmol/min/mg] | kcat [1] [s⁻¹] | kcat/Km [1] [M⁻¹ s⁻¹] | Km [2] [mM] | Vmax [2] [µmol/min/mg] | kcat [2] [s⁻¹] | kcat/Km [2] [M⁻¹ s⁻¹] | Km [3] [mM] | Vmax [3] [µmol/min/mg] | kcat [3] [s⁻¹] | kcat/Km [3] [M⁻¹ s⁻¹] | Km [4] [mM] | Vmax [4] [µmol/min/mg] | kcat [4] [s⁻¹] | kcat/Km [4] [M⁻¹ s⁻¹]
1 | B1 | 4.4 | 23.5 | 16.5 | 3900 | 2.2 | 33.7 | 23.6 | 11000 |  |  |  |  |  |  |  | 
2 | B2 |  |  |  |  |  |  |  |  | 4.3 | 72.6 | 47.2 | 11000 | 2.6 | 1800 | 1170 | 450000
